# Results published in patent US20250189530A1 (STCUBE, published 2025).
# B1: STC43H11-1 (antibody, V domains shown)
# VH: QSLEESGGRLVTPGGSLTLTCTVSGIDLSSYAMGWVRQAPGEGLEWIGSIGTGGGTGYASWAKGRFTISKTSTTVDLKMTSLTASDTATYFCATSNLWGPGTLVTVSS
# VL: QVLTQTASPVSAAVGGTVTINCQASQSVYNNNRCSWFQQKPGQPPKRLIYHTSTLDSGVPSRFKGSGSGTQFTLTISDVQCDDAATYYCLGNYDCSRADCAAFGGGTEVVVK
# notes: From immunized New Zealand rabbits; IgG heavy chain and Kappa light chain; also called clone #43H11; Clone 43H11
# How the values were obtained:
# [1] = target: T1, BTN1A1 peptide 4 Mutant 12 (I372A) (human); test: kinetics of peptide on STC43H11-1, separate assay, method not named
# T1 construct: The entry already carries the mutation; also called Mutant 12 (1372A); BTN1A1-pep4- Mutant 12
# T1 peptide: EVEVGDRTDWAAGVC
# [2] = target: T2, BTN1A1 peptide 4 Mutant 10 (W370A) (human); test: as above
# T2 construct: The entry already carries the mutation; also called BTN1A1-pep4- Mutant 10; mutant peptide #10
# T2 peptide: EVEVGDRTDAAIGVC
# [3] = target: T3, BTN1A1 peptide 4 Mutant 6 (D366A) (human); test: as above
# T3 construct: The entry already carries the mutation; also called BTN1A1-pep4- Mutant 6; mutant peptide #6
# T3 peptide: EVEVGARTDWAIGVC
# [4] = target: T4, TRIM11 peptide; test: as above
# T4 peptide: EVEVGDRTSWALGVC
# [5] = target: T5, BTN1A1 peptide 4 Mutant 5 (G365A) (human); test: as above
# T5 construct: The entry already carries the mutation; also called BTN1A1-pep4- Mutant 5
# T5 peptide: EVEVADRTDWAIGVC
# [6] = target: T6, BTN1A1 peptide 4 Mutant 9 (D369A) (human); test: as above
# T6 construct: The entry already carries the mutation; also called BTN1A1-pep4- Mutant 9
# T6 peptide: EVEVGDRTAWAIGVC
# [7] = target: T7, BTN1A1 Peptide 4 (human); test: as above
# T7 construct: also called BTN1A1-pep4- WT; Pep4
# T7 peptide: EVEVGDRTDWAIGVC
# [8] = target: T8, BTN1A1 peptide 4 Mutant 8 (T368A) (human); test: as above
# T8 construct: The entry already carries the mutation; also called BTN1A1-pep4- Mutant 8
# T8 peptide: EVEVGDRADWAIGVC
# [9] = target: T9, BTN1A1 peptide 4 Mutant 7 (R367A) (human); test: as above
# T9 construct: The entry already carries the mutation; also called BTN1A1-pep4- Mutant 7
# T9 peptide: EVEVGDATDWAIGVC
# [10] = target: T10, BTN1A1 peptide 4 Mutant 11 (A371G) (human); test: as above
# T10 construct: The entry already carries the mutation; also called BTN1A1-pep4- Mutant 11
# T10 peptide: EVEVGDRTDWGIGVC
# [11] = target: T11, hBTN1A1 ICD (human, UniProt Q13410 270-526); test: ELISA, 10X dilution
# T11 sequence: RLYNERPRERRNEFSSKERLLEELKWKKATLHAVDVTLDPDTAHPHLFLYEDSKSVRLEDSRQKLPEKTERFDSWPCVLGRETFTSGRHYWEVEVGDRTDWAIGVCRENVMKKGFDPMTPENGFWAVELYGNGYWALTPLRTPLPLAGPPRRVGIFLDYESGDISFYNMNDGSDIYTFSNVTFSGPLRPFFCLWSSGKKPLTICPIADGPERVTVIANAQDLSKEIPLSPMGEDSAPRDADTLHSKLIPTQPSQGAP
# [12] = target: T12, denatured hBTN1A1 ICD (human, UniProt Q13410 270-526); test: ELISA, 10X dilution
# T12 construct: Same protein as hBTN1A1 ICD, denatured before the ELISA; also called hBTN1A1 ICD denatured; Denatured ICD
# T12 sequence: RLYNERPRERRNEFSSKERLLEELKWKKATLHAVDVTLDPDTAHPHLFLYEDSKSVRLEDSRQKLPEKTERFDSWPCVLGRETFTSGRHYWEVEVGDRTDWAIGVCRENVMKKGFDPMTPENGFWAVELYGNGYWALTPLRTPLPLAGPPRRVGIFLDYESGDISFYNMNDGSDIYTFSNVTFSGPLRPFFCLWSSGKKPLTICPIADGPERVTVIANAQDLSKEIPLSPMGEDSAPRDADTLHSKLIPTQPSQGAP
# [13] = target: T7, BTN1A1 Peptide 4; test: ELISA, 10X dilution
# [14] = target: peptide 4 variant R367A expressed by HEK293T cells (human); test: western blot, HEK293T lysate, antibody 1 ug/ml
# [15] = target: peptide 4 variant A371G expressed by HEK293T cells (human); test: western blot, HEK293T lysate, antibody 1 ug/ml
# [16] = target: peptide 4 WT expressed by HEK293T cells (human); test: western blot, HEK293T lysate, antibody 1 ug/ml
# [17] = target: peptide 4 variant G365A expressed by HEK293T cells (human); test: western blot, HEK293T lysate, antibody 1 ug/ml
# [18] = target: TRIM variant expressed by HEK293T cells; test: western blot, HEK293T lysate, antibody 1 ug/ml
# [19] = target: peptide 4 variant D369A expressed by HEK293T cells (human); test: western blot, HEK293T lysate, antibody 1 ug/ml
# [20] = target: peptide 4 variant V374A expressed by HEK293T cells (human); test: western blot, HEK293T lysate, antibody 1 ug/ml
# [21] = target: peptide 4 variant T368A expressed by HEK293T cells (human); test: western blot, HEK293T lysate, antibody 1 ug/ml
# [22] = target: peptide 4 variant V364A expressed by HEK293T cells (human); test: western blot, HEK293T lysate, antibody 1 ug/ml
# [23] = target: peptide 4 variant G373A expressed by HEK293T cells (human); test: western blot, HEK293T lysate, antibody 1 ug/ml
# [24] = target: peptide 4 variant D366A expressed by HEK293T cells (human); test: western blot, HEK293T lysate, antibody 1 ug/ml
# [25] = target: peptide 4 variant W370A expressed by HEK293T cells (human); test: western blot, HEK293T lysate, antibody 1 ug/ml
# [26] = target: peptide 4 variant I372A expressed by HEK293T cells (human); test: western blot, HEK293T lysate, antibody 1 ug/ml
binder,measurement,setting,value
B1,Kd,[1],10.6 nM
same,koff,[1],0.000778 s⁻¹
same,kon,[1],73600 M⁻¹ s⁻¹
same,Kd,[2],4.95 nM
same,koff,[2],0.00106 s⁻¹
same,kon,[2],215000 M⁻¹ s⁻¹
same,Kd,[3],13.5 nM
same,koff,[3],0.00082 s⁻¹
same,kon,[3],60900 M⁻¹ s⁻¹
same,Kd,[4],621 nM
same,koff,[4],0.1 s⁻¹
same,kon,[4],162000 M⁻¹ s⁻¹
same,Kd,[5],1.72 nM
same,koff,[5],0.000146 s⁻¹
same,kon,[5],84800 M⁻¹ s⁻¹
same,Kd,[6],39.1 nM
same,koff,[6],0.0101 s⁻¹
same,kon,[6],258000 M⁻¹ s⁻¹
same,Kd,[7],0.0844 nM
same,koff,[7],1.62e-05 s⁻¹
same,kon,[7],192000 M⁻¹ s⁻¹
same,Kd,[8],1.77 nM
same,koff,[8],0.000822 s⁻¹
same,kon,[8],464000 M⁻¹ s⁻¹
same,Kd,[9],0.339 nM
same,koff,[9],0.000153 s⁻¹
same,kon,[9],453000 M⁻¹ s⁻¹
same,Kd,[10],1.39 nM
same,koff,[10],0.000425 s⁻¹
same,kon,[10],306000 M⁻¹ s⁻¹
same,ELISA signal,[11],2.96
same,ELISA signal,[12],2.9
same,ELISA signal,[13],2.83
same,STC43H11-1 Adj. Vol. (Int),[14],1.48e+06
same,STC43H11-1 Adj. Vol. (Int),[15],156000
same,STC43H11-1 Adj. Vol. (Int),[16],4.02e+06
same,STC43H11-1 Adj. Vol. (Int),[17],2.26e+06
same,STC43H11-1 Adj. Vol. (Int),[18],-7610
same,STC43H11-1 Adj. Vol. (Int),[19],5470
same,STC43H11-1 Adj. Vol. (Int),[20],672000
same,STC43H11-1 Adj. Vol. (Int),[21],374000
same,STC43H11-1 Adj. Vol. (Int),[22],480000
same,STC43H11-1 Adj. Vol. (Int),[23],19900
same,STC43H11-1 Adj. Vol. (Int),[24],-228000
same,STC43H11-1 Adj. Vol. (Int),[25],221000
same,STC43H11-1 Adj. Vol. (Int),[26],4010
